Measured values published in a protein production outcome set (Wang et al. 2014).

Test: label from the status in PepcDB records

Row | Sequence | protein production
1 | MFSILLPTWNNLALLKLCVQSIRAHSAHDHQIIVHVNDGSDGTLAWVREQGLDHTHSPGNVGICLAVNESAMLARHDYIVYLNDDMVCCPGWDTALLRRLDTLDTDLFMLSGTMIEPVDTGNPCVVVGNYGRDADTFDAARLLADVPRLARGDWLGATWPPTLVHRRWWFKLGGYSSELTPGMSSDNDFSMKLWHAGCRIFLGAGDSLVYHFQCKSTGKVKKNDGRRQFLNKWGLSQSTFDKYFLRRGTPAGADWRLPEPELTSALRWDLRRNDLTRRLRPGVPVLLEHHHHHH | not failed
2 | MQKTSFALLVAALQLASASALAATPPVADAIWFNGPIITIDDQHPKAQAVAVKDGKILAVGDRQHVLKNKGPATQMLDLKGATLLPGFVDPHGHVSMVGFQAASANLLPPPDGTNNSIPGLQETLRRFEQQSPIPKQFGVLFGFGYDDSQLQEQRHPTKADLDAVTRDLPIAIVHQSSHLGVLNSKALELAGIDASTPNPEGGVIRRVDGSQEPNGVLEENAFFNALIRIFPKLTADQAVDMLSAGQKLYVSYGYTTIQDGRSSPDQVKTAIKAAGDGKLLADIVSYPDILTPGVKQLMVAPWYHPSNQPVVYNQHFRIGGVKLTLDGSPQGKTAWLSQPYFKPPQGQDASYAGYGVVKDADALAIYKEALANRWQILSHTNGDRAIDQLLGSMRAAEQAYPGVDVRPVMIHGQTLRKDQVAELKQLKIFPSLFPMHTYYWGDWHRQSVLGPERAENISPTQWVLQAGMKFTTHHDAPVALPDSMRVLAATVNRTTRSGYVLGPDQRVTPLQALKAMTLWSAYQHFEEDRKGSITPGKLADFAVLSANPLTVKPETLSEIQVLKTVKEGRVIYERPAKVASLPPPFGMHGDPSLPVPQGIRAVAQGDGDLGPALDVIYDRLAPVQP | failed
3 | MDFKQRHTWLKIASCKSISAKKRASIWQKLTEFDQYEMTTQTFAESFFPVDKLAQILMELETAEACFFDDVTLIWILDDAYPALLREIYEAPPILFCKGNIDLLQQQAIAIVGTRQMSEYGRKACMKIASELAENKLTIVSGMAIGIDSTAHRATLNKQGATIAVLGSGVNKVYPKKNELLAKEIVKEGLLLSEYLPDEEAKRWHFPERNRIISGLAIGTVIIEAAERSGSLITADIALEQNRQVFAVPGNIFIDTWQGTNYLIQEGAKLVMNSNNIIEEFIQIKP | failed
4 | MSNTIIRSLCVVLFGIAAVPGIADAQSSAYTNSGAELFAGPAPDYPVVAQLPPGTAVDVFGCLSDYSWCDVALPGVRGWIDAQQLDYPYQGNYVPLLEYGAIIGVPVTGFAIGTYWDRYYRHRPWFHDRDRWEHRAEPRVGPGGMPPAYYGRPQPGWPAQREPRGAPPVQHDARPSATRGGWNGPNRAPAPQVAPAPARAPAPMPAPAPMPAPAPIPGAAGVRQPAPPPAQPAQPAPSGGAVQMMPPAHQGGGGYGGRPQGGGDGGGNHGGGGGRGRSDEFRR | failed
5 | MKQRRKGQENSDTEEMISRIYPYITRVFDIYEIQKSGEILYFFGTPKTDAENVMGELWAPLEQRGLGGTLKYELGEHVLIVTPVKKAKEKHWVNLALFIATVFTTMICGAWLFGVDLWSEPLQIFQGLPFTLAILAVLGSHEMAHYAMARHHGMKTSLPYFIPFPTFIGTMGAVIRYRGPIPDRKALFDVGIAGPLVGLLVSIVVTIIGLNLDVPAVKPLPDSLMFELGLPPLFVMLQKLVGVTGSNLHPVAFAGWVGMFVTLLNLLPAGQLDGGHVLRAMLGKKADWVSSMMPRILLMIGIYVVYGLKGDGFIWIFWALFLWAFAAAGHPSPLHDKMKLDRKRILIGILTFILGLLCFTLIPFKPIT | failed
6 | MPALSGPQYLGEGLKLIMRPGLRLFVLIPLTLNLLVFALLIGFAMQQFSHWVDLLMPSLPDWLSFLQYIVWPLFVLLVLVIVFFTFTMVANIISAPFNGFLSEKVEVVVRGRDDFPPFSWAELLAMIPRTMGREMRKLAYFLPRALVLLVLSFVPGVNLIATPLWILFGIWMMAVQYIDYPADNHKLGWNEMLAWLRSKRWACMGFGGVTYLALLIPLVNLVMMPAAVAGATLFWVREEGERALVK | failed
7 | MVEVYRLTKRHLDGAKSESALLNQIKIFSTCVGHGVGTIDFSEKVLEIPPAEFEAILQNGGEYLRFKLGNLSRYFEVEVFPEHAAKLLPEMMECPFKKVLEELREGYLVLRKDFKHA | failed
8 | MKTEKFFTHPIGVFIAAIVATFLWGSAFPFIKLSYVELGIQPQEVGEQILFAGYRFFLSGFMLLLFFKVLGKDMSFKKGTGKQLIQIGLFQTFLQYICFYIGMSYSSGIEGAIISGTSSFFQILLAHFLYKDDALNMRKIIGVSIGFCGVVLVNMPSDGSLSFHFGIGSLLLLSAAMLYSYGNILAKEGSKTLDVGYMTAYQMMFGSIGLLCIGALQVGVMPFTFSLHALLMLIYLSFLSAAGFCIWNTIMKYNKVGKVSMYMFFIPVFGVLLSSMILGEAIHSFVLLGLACVAAGIIVVNRTPAKQKIEKEKQVA | failed
9 | MNNVFGLDIGTRNVVGTVGYQTDDKEFVVTAQYVREHETRAMLDGQIHDIGRVAKTIKEVKDELEKQTGQPLEEVCIAAAGRVLKTVTTHVEYEYAQESVVTGEDVHTLDLLGIEKAQEALKEVNDTSYKFYCVGYSTVKFFLNDEVFISLEGHKANKIGEDIIVTFLPEDVVDGLYAAVGQAGLSVANMTLEPIAAINVAIPENYRMLNIALVDVGAGTSDISITRDGSIIAYGMIPHAGDELTEVIVQHFLVDFNMAESIKLQSTTSDTVTYKDIMSIEHTIPAQDVWDVAAPVVDNIAQEVSAKIRELNGDKTVSACFVVGGGGKIHGFTEKLAEDLDLPEERVALRGEEVLGDVTFEQEDIKKDPLLVTPIGICLNYYDQRNNFIMVRFNGERIKLYDNNRLTIVDAALQAGFPNDELFPKRGTPINFTVNGVARLVRGEAGEGAVVTMNGKPASINTPLEPNSEIIIEPSTAGEAAVYKISQLDEYNHSVITFIINGRRVSCPRFVQVNGELEPEDYSIRENDVIETRNYYTVRQIAQFMDLVIDTDQMIFVNNEEAGLDTLVYENFSVEWKTDEYGVARIDNNTYNDTQESDTDEASVLAEQDANSTESDNTVARTSEQMMNQVLDELHDDFAKEAEASAVPENELPENELPKNDIQEEIHEEDSSKNTVTVIVNGEPVELSGKDTYIFVDIFTHISFDLQAGKGRAIATVINGRDARFSEELHEGDKIELYWKEN | failed
10 | MLSMLALGSEKLMMGNNFPGSGVCFVYTDFGIPEYYRIIVLGLIALVGIKEMLLTSRKEDHFSIDSIDIGIFPLLICFVANFLFAGLEIIFTGLSP | failed
11 | MEKYLRSGTMFVVLAFILWGLTPLYYQYLSGGNLAQILIYRVFWSIPLLLAVRLLFRQRTRFHDAWKDKKSFFFCMIAGLLMIVSWSSFIYALTHHLVLDASLGYFINPLFVIALGCIFLKEKLSLFQAIAVFSGVCGLTFQIIMLRHFPALALTMGLSFALYGLARKFIHYDVMTSITIETLWALPVSLLIFLFSDSGPIISANTPFFLYVMTAPVTIIPLVLFAIALNHTSLIVTGLAQYIEPSLQFLLAIMIFGEHINYAELLCFCAVWFGLFLCISENLYSHYLRARLKPVFGRVQRFFR | failed
12 | MSRVSLRLWDPLVRLFHVSIAGVFVANYFFNEAGDDWHIWLGYYAVAWLAVRVVWGFLGPTSARWSDFWPSPARLRAHVRSLIDRKPVHRLGHSPLGALVMVLMMALIFGMGLTGFLMEEVDALWGADWPLQTHEILANTLCALVVLHMAAAIFESFQVRDNLPLSMLTGKRRPLPEDDYR | failed
13 | APAEIFNVVKYPAKLGDMYAYLTPPPANKKNKLPAVIWLNGGYGGIGGDDYFWTPQPVENDQTGATFRDPNMVLMIPSFRGENTNPGRYEMFYGELEDLDSAREYLASLPYVDPKRIYVVGHSTGGTRALLASEYSDKFRAIFSLGGIPDLKLRTEGRMMVELPFDKNNEEEFNVRSVYRYIKSIKTPTFYFEGHDYFWDEFNELRVVAMEHDIPLKIYNIKNGDHFNIIVPVSQLIKEKILQDTDTNKESNIRFTNEEIKWINKMVK | failed
14 | MIIAIPVSENRGKDSPISEHFGRAPYFAFVKVKNNAIADISVEENPLAQDHVHGAVPNFVKEKGAELVIVRGIGRRAIAAFEAMGVKVIKGASGTVEEVVNQYLSGQLKDSDYEVHDHHHHEHH | not failed
15 | MTKQKSKPVEYHPFPQLVLTLDVRRSFTPTFLRQILQTRSFACVILYDSQGVQDDAVFLQKQAQIYAEDIQSNGAAFLISGERRVSERIKADGLHIEGDLKALEYCDYQKKEQKIIGFGNIRNRHCAMVAGEAGVDYLLFGKLGADKKPHAHPRNLQLARWWAEIMETPAIVQAGSDFATFDEVIKTACEFIAIEEVIFAHDNPLMLLKMMQEKCKNSPL | failed
16 | MGLKGYSVGEGGGEIVEVQGGHIIRATGRKDRHSKVFTSKGPRDRRVRLSAHTAIQFYDVQDRLGYDRPSKAVDWLIKKAKTAIDKLELGETTTTTTRQEPVNTKPESPTLVFQRENNDQTQFVAANLDPEDAMKTFFPATTTTNGGGGTNINFQNYPHQDDNNMVSRTTTPPPNLSQDLGLSLHPFQGNNNTVVVPETNNFTTTHFDTFGRISGWNHHDLTMTSSSSSEHQQQEQEERSNGGFMVNHHPHHHHHQPSMMTLLNSQQQQVFLGGQQQQQQRGTLQSSLFPHSFRSWDHHQTTSDHHHHQNQASSMFASSSQYGSHGMMMMQGLSFPNTTRLLHGEEATQPNSSSSPPNSHL | failed
17 | MEPHAESAAAGQAAPPEKRRASWFTRMGRVVRFAGQRADEQKLLQVASSLTFTTVLAIVPMLAVVLSLFTAFPVFQEFRVALEDFLANSLMPPSVSDNIMDYLNQFARQATRLTAIGGAFLIVTSLLLIMTIDKTFNDIWQVTRQRPLPQRALVYWAVITLGPVVAGASLWATSFVARESLGLVRDVPEAVSVAISFIPLVLTGLGFAALFVVVPNRRVYWKDALVGGFGTAIVLELMKAGFAYYLTRFPAYTVIYGAFATLPIFLLWIYLSWLAVLFGATVAASAPLIRLGRWEINRHAGAPFIDALGVLRVLHAAQGSRPAGRSANALAKRLRLHHDELNAVLEALEDMELVARTAEQRWVLTCDPRTTTLEPVFDRFLLDRGQPRLRDEPEIAAVAAGVLGQGPDPTLADLAGVAQNTDIGPAAAVLQLETGKK | failed
18 | MGLCVSVNRNEYVSSSTTAKIVTINGDLREYDVPVLASQVLESESTSSSSSSSSSSYFLCNSDSLYYDDFIPAIESDEILQANQIYFVLPISKRQYRLSASDMAALAVKASVAIEKAAGKKNRRRRSGRISPVVTLNQANDNRIAAVNNRIGGEATNMMMQKGKLPNRTTPFKDTNGYSRSGSVRKLKRYTSGRAKLAVRSFRLRLSTIYEGSSFN | failed
19 | MIDTFERTGPLMEASSYPAWAQQLINDCSPAKARVVEHELYQQMRDAKLSPQIMRQYLIGGWPVVEQFAVYMAKNLTKTRFGRHPGEDMARRWLMRNIRVELNHADYWVNWCAAHDVTLEDLHDQRVAPELHALSHWCWQTSSSDSLAVAMAATNYAIEGATGEWSAVVCSTGVYAEAFAEETRKKSMKWLKMHAQYDDAHPWEALEIICTLVGNKPSLQLQAELRQAVTKSYDYMYLFLERCIQLDKVKSPRGRVAALEM | not failed
20 | MLMSFILLISTSMILISVFSYVLIALIVLGIVLSLISLLSPRVSYVSSVYLIGLTVYLNPGFSLTQSLINTVPILGEINMLSGLLKTPVTSIISSLFSLALLNLGIKGYEIYLSKHADIVKLDSIIFSQHGLPKQANWNIVVNSEVKLLKSNEKLILSNTPEAKYELCPTLVDHKYYVPNKVTGLAFEGEVIRINYSPVDGVPYEKFRNCFTVFEVEGLPPDTSFVIEINGASLKLKDRKFAKLSLEPLYWKVNEIRISREDEEEIYEPDIKEGLTFRGGTVKINFRRKVIRYKTAKIPSIENWDPGIWVGQEVYGYRVIEVIGLGGNGYVMKVEKNGLLYAMKVLSVNKFTNSLEHFDNLLKESENLEKLSKDPRLVSIYGSFVDKNNIQSALAGDYTSYYKYPPAIIMEFMEGGTLFDLISRVDLVQSKYWQYIVKLVIKEIAKALTFLHKRGYVHLDVKPQNIFLKEKINGEPEVVYKILSSTPGIIKLGDLGSAVRVGEKITQATPAYSPPEQIEAVITGKGAQPSMDNYALGVTLYKLLTMKNLDYVNYLDKAFDEYIKGDPSIAMKYINMAKMSMVNFKPKLPHNTLPELANVVQGTLVVDPKRRLTSYDIVKILEG | failed
